Source: the DeepSol protein solubility set

test: soluble on expression in E. coli; label from the status in PepcDB or PDB records

| Sequence | soluble on expression in E. coli |
| --- | --- |
| MGSDKIHHHHHHVFAGFDYGSANCAMAVCEGDSVRLLPIGDSGGQYLMSVVYALDVSFITEAVCQRLPDNQARALVQKRGAELARARRMRQELDLTATDDTVFIGEAALKAYLDTPEEGFFVRSPKSFLGATGLRPEQVALFEDIVTLMMLEVKGRADALLQNPVTHAVIGRPVNFQGIGGEEANIQAQSILQIAAMRAGFTQVSFLFEPLAAAFDFESSLEADKRVLVVDVGGGTTDCSLVTMGPNKRSQTERSEDCLGHSGQRIGGNDLDIALAMECLMPHYGLGDMLSTGKPMPRQMFWQAVAINDVGAQRDFFSLSYATAIKELRKDAINPDALDRLARLRRDQQHCQLVKLAELAKIDLSGEELTQVEHPDGAHTSVAADAFGLAIAPLVQRIGELMRAAVGDESSPDLIYVTGGSSRCPQVASSIAAVYPGVEVVQGDSFGSVTAGLARRAALEFA | not soluble |
| HSSGLVPRGSHMSQERILDGEEDEINHKIFDLKRTLKDNLPLDRDFIDRLKRYFKDPSDQVLALRELLNEKDLTAEQVELLTKIINEIISGSEKSVNAGINSAIQAKLFGNKMKLEPQLLRACYRGFIMGNISTTDQYIEWLGNFGFNHRHTIVNFVEQSLIVDMDSEKPSCNAYEFGFVLSKLIAIKMIRTSDVIFMKKLESSSLLKDGSLSAEQLLLTLLYIFQYPSESEQILTSVIEVSRASHEDSVVYQTYLSSVNESPHDIFKSESEREIAINILRELVTSAYKKELSR | soluble |
| MDPSSIDLGSIPGGSEQQQHEDGAAAAAGSPKEVFRSQQSLGLITQRFMSLRQRNEVLNLNEVAKELNISKRRVYDVINVLEGLGYVEKVEKNNIRWIGDNNNSEEQNALEARVEMLRQQEKLLELMIRDAQAIIELHFEDPIERPYNYVSKEDIRKTAEPNTKSIIVKSELDTSSSFEIQVTDPSTSGSHDMIVRNKNGVKSHALLFTNDPPEYGDEEDEDDVKKLSSQKRFETSEALRVTLAEMLTDPTTISSSPKHIKLEEPEEIDTEDLETFAPPEFSENKWSQKIGGGLAILWAWLALMPRPQNGNFFSAKFFKFFPETVARKTFVLPPSTSASQSNAPYLPETPGRGLFFSPFKSLIDPCILPSFSDDLTSGYINITTPSRATGAGAGASGQEDEEPVSVMDFFSD | not soluble |
| MSDLMQKENIVVMLTKKGFLKRLSQNEYKLQGTGGKGLSSFDLNDGDEIVIALCVNTHDYLFMISNEGKLYLINAYEIKDSSRASKGQNISELINLGDQEEILTIKNSKDLTDDAYLLLTTASGKIARFESTDFKAVKSRGVIVIKLNDKDFVTSAEIVFKDEKVICLSKKGSAFIFNSRDVRLTNRGTQGVCGMKLKEGDLFVKVLSVKENPYLLIVSENGYGKRLNMSKISELKRGATGYTSYKKSDKKAGSVVDAIAVSEDDEILLVSKRSKALRTVAGKVSEQGKDARGIQVLFLDNDSLVSVSKFIK | soluble |
| MGSDKIHHHHHHMHSHHPISHDVVISGAGPVGLFLACELRLAGLSVLILEKAEDPRSPLKRLPFGMRGLSAPTIEAFHRRDLLDAIAPPTTKDGSGKLVAAHWMQQPRRPGGHFAGIQFHLDAVDSSKWPYRLPGPAGTSMAVEMEQLETMLATRATAMGVEIRRGLGVEIFDQSDEDVTIRAGGEIFRARWLVGCDGGRSTVRKLGGFAFTGTDAEFTGYSVEVEIADPDALSPGRHYTPTGMYTYSRPGTIAMVEFDGATFHRTEPITLEHVQAVLRRVSGTDVTLTALRLATTWTDRAYQASAYRNGRVLLAGDAAHIHSPLGGQGLNLGIGDAMNLGWKLAATIRGDAPAGLLDSYFDERHPVGAQILDWSRAQVALMRPSRSSRALEAIIRDLIDTRDGATYFAERVWGVSLRYDVGGSHPLVGRSAPDFELADGTRPGERLRTGQALLLDFAARPALQALASRWSGRIAYVAEDARERLGLSALLVRPDGVVAWAADGEPDLEGAAQAASRWFGEPGQVAAYAKGTV | not soluble |
| MGSDKIHHHHHHMKKVAIVILNWNGRKLMEEFLPSVVSNSPEWAEVIVADNGSTDDSIEMLKAKFPTVGIISFNQNYGFAEGYNQALKRLDHEYCVLLNSDVEVTPNWLDAPIATLDSDPSIACVQPKIRAQRNKEYFEYAGAAGGYIDKYGYPFCRGRILHIVEKDEGQYDTPAYILWATGACLFVRTATYKEVGGLDAGFFAHQEEVDMCWRLRSRGYRLVCVPQSIVYHVGGATLNAESPRKTFLNFRNSLLMLYKNSREADLKHVMRIRFWLDYIAAAKFLMEGHIQNAKAVYEARKAYHQLKPEYAPKRKENLEKSTLSTIPELMRDSLILAFYLKGKRTFKAIKDRR | not soluble |
| MGSDKIHHHHHHMSIKSGFVALAGKPNVGKSTFINAVMGRKVVIVSDKPQTTRNRINCIYTDKDSQIIFVDTPGIHKPLHRLGEYMVKAAVQALKGVDLVLFMLDAADGFTKTDEHVAKIVNDSGTKTIIAVNKIDVAGEEKAKAVGELAKSMVENVVSVHYISALKGEGVFEVLEKIKEELPEGPQYYPEDMVTDRPLSFMAAEIIREKIFHLTRQEVPHSTAVVIEEIKDRPNGVLYIRANIYVERDSQKGILIGKNGSMIKKIGTLAREELEFLVGRKVYLDLNVKVKEKWREKDFIILQEIGLKDDIK | not soluble |
| SQPKVPEWVNTPSTCCLKYYEKVLPRRLVVGYRKALNCHLPAIIFVTKRNREVCTNPNDDWVQEYIKDPNLPLLPTRNLSTVKIITAKNGQPQLLNSQ | soluble |
| SLLSETSTALGLQELSNITMPVIFNEPLSFLQRLTEYMEHTYLIHKASSLSDPVERMQCVAAFAVSAVASQWERTGKPFNPLLGETYELVRDDLGFRLISEQVSHHPPISAFHAEGLNNDFIFHGSIYPKLKFWGKSVEAEPKGTITLELLDHNEAYTWTNPTCCVHNIIVGKLWIEQYGNVEIINHKTGDKCVLNFKPCGLFGKELHKVEGYIQDKSKKKLCALYGKWTECLYSVDPATFDAYKKNDKKNTEEKKNSKQTSSSEESDEMPVPDSESVFIIPGSVLLWRIAPRPPNSAQMYNFTSFAMVLNEVDKEMESVIPKTDCRLRPDIRAMENGEIDLASEEKKRLEEKQRAARKNRSKSEEDWKTRWFHQGPNPYSGAQDWIYSGSYWDRNYFNLPDIY | soluble |
| MTALTIKDLRYKHNQRMILQNVQLTLAPSKIVGLLGENGAGKTTLMRLITGSAKGQGSIVINGATTAVARKQQVSFTDHLTGFSAGMKLQQIAQFYQLVYPDFDAKRYQELVDFLELNQQQKLGELSKGTREKLIIALTLSRKVALYLLDEPFSGIDSMSRKKIINSIIKWTPAEATLLISDHYVTEIAPILDEIVVVKDQTIVVHQGADEIRDEHGMELEDYYESLYMGGVTDDK | not soluble |
| MATAVELALLKQPYFDLNALCKTVFVTYKAGPGLKKIVTVQAQYVDICNKPNVRGTVVSLPGSPGSHNDIKYMRDSFEKHNIRLICVNWPGSEFVTGGMNDTYTNAERNSYAKALMEKLELKKVEKLILLGHSRGGESALQLACTLSDDRSWPLIGAVMLNSPGFVVHRGISIRMGTINTVSFLVKLRWKIVDCILFPVLDWFYNDFVGLRVSDGKVCAAAMLPMQTFAFEEQRASIDEMKKKPWIRMFYAYGSKDFLVDESDSEELAMHFGGDHYIIHSKKESEETIPKIWNSYERGQSYVTANFTEEGHYLHKTYPEFLIQIFGGIFDVKTEKS | not soluble |
| MSMIHKFSMNGYNIVLDVNGGAVHVLDDVAYDLLDFYKEKSKEEILEILKSKYQEEKINEAYEEILNLEKEGLLYTEDTYQYHPSFVHREPVVKALCLNVAHDCNLKCKYCFAAQGDFGGEKELMSFEVGKAAIDYLIANSGSRKNLEIDFFGGEPLMNFEVVKQLVDYGRSVEKDYNKNIRFTITTNGVLLNDEIIDYINENMHNVVLSLDGRKEVNDNMRPTLNDKGSYDITLPRFKKLVEKRSKDKYYYIRGTFTRDNLDFSKDVMHFADLGFKLTSVEPVVGDESNPYALREEDLPKIFEEYEKFAVEYADRQLQGDGFKFFHFMIDLNQGPCVIKRITGCGAGNEYLSVTPNGDIYPCHQFVGNEEFKMANIFDEEIVLPENLKNMFREAHVYTKEECKQCWNKFYCSGGCHANAINFNSDISKPYELGCEMQRKRTECSIMIQAKLMLEGATN | not soluble |
| SSWFRAAPENASPGDQDVFDEEADESLLAQREWQGHMRKRVQEGYRDGLDAGKALTLQRGFNQGYKEGADVIINYGLLRGTLSALLSWCHLHGNSSTLISKISNLLDTVDQCEECVLRRLKSVTSQPRVTDLLDAIEDMDLCHVVPSDQAKGDSNAEINTDSDSPNGMGCSHPEHCRPKEHAHLEKPSLSWILEQTSSLVKQLGVPADILQHLRQL | soluble |
| MGSDKIHHHHHHMGGNRFGQSPVTGGAGVNAVAKRACLDDVQIAFGQGHRVHVARADTAPDLTRAFAQPIHLCTPICPPRTLTTTRHMDNPHGRAIVHAMEQLDADILIVGGGLNGPCLALACAQAGLSSVVLDALPAQTREETGFDGRAYALALASVRMLDALGIWNQVEDHAQPMLEIKASDGRAGEGAAPFFLHFDHAEIEEGPMGHMLEDRYLRRALMAAMEASSLVAHRAASRVLSQDTNGMASVTLDGGEVLRGRLLIGADGKRSGVAERAGIRRMGWDYNQTALVCAVDHDRPHNGIAHQFFMPGGPLAILPLPGNRSSIVWSESEPRASELAAADDDTFMDALRPAFGDFLGNISLTGQRHSYPLSLSLAQAFVAEKLALVGDAAHGVHPIAGQGLNLGLRDVSALAETLADAKRRGEDFARRDVLDRYQQWRRFDTAGLAVATDSVNRLFSNDNPAVRAIRDIGMGAIGALPTLRRRFIREAAGLTGDLPRLMQGRTL | not soluble |
| MSSAQFDHVTVIKKSNVYFGGLCISHTVQFEDGTKKTLGVILPTEQPLTFETHVPERMEIISGECRVKIADSTESELFRAGQSFYVPGNSLFKIETDEVLDYVCHLEG | soluble |
| MTTLAIDIGGTKLAAALIDNNLRISQRRELPTPASKTPDALREALKALVEPLRAEARQVAIASTGIIQEGMLLALNPHNLGGLLHFPLVQTLEAIAGLPTLAVNDAQAAAWAEYHALPDDIRDMVFITVSTGVGGGVVCDGKLLTGKGGLAGHLGHTLADPHGPVCGCGRVGCVEAIASGRGMAAAARDDLAGCDAKTLFIRAGEGHQQARHLVSQSAQVIARMIADVKATTDCQCVVIGGSVGLAEGYLEQVRAFLMQEPAPYHVALSAARYRHDAGLLGAALLAQGDTL | not soluble |
| MAHHHHHHMPPLLTEVKPAGYRPQLRVCYLCGQQFGSASIGIHVPQCYQKKLSQWEVTDPAVRGPKPKHPDMVKWKGGNGASVEAINREQYQEFNSQLVACPHCARTFLPDRLPVHLRGCRGDGKVGVPSSKAKADGGGGSTPGGGKHKSEPRRAAGCRSLSPGPPLLPTCYLCGQQFGTASIGIHVPQCYEKKLAQWQNADPHSRGHPPKHPDTVNWRGRPGASPREQAEEQFQEFMNNLEECPNCSRRFLPERLVVHLRSCRPDNPPKPTSPRKAKTGGGARCPTPTTATTPADTAATKASIGGQTPRSEKQQRKQEPPTSSAGEDWIHPKRNRLTRHSTLPTESRVCPQCDAVEYDADAKFCRDCGHNFVPKPLSNSCQHCGERIPHGSRFCGTCGQPVQGASAHELTPGGPNKHASTVRRVVCPACEAISDADGNFCDNCGAALGDADLTPAPAAAGAAATPPSTRAGGSTEHKAVLYCAKCKETVEDTTAVFCEDCGGRLEALKVLTTKDDGPPLRADGTLPPSDVARLKVARASTPQRPSASEPAKTVTTPVASSVAPARPQTRNACTPIEEHTDEFPAYAEDDLVRVPCSHCGRQFASESLAKHERICCSQKKRRVFNATKQRLPEGATAAAKPSAGSQPAAPKRDWKAESESFRRALREARQVDQVLKAGGTAKDLPPPTYSTNPDYVPCPHCQRRFAPDVAARHIPRCANTVNRPKPPPRRR | soluble |
